Experimental data: the Human Domainome abundance scans (Beltran et al. 2025)
± gives the uncertainty stated by the source.

B1: Intersectin-2, residues 1129 to 1183; numbered along this chain, Q9NZM3 (parent)
chain: VCQVIAMYDYAANNEDELSFSKGQLINVMNKDDPDWWQGEINGVTGLFPSNYVKM

Variants of: B1
Assay: abundance fitness (aPCA) (normalised: wild type 0, dead -1); higher = more abundant; growth selection in yeast, the domain comes from the species named
Conditions: Homo sapiens

Variant	abundance fitness
VCQVIAMYDYAANNIDELSFSKGQLINVMNKDDPDWWQGEINGVTGLFPSNYVKM [E15I]	-0.076 ± 0.054
VCQVIAMYDYAANNGDELSFSKGQLINVMNKDDPDWWQGEINGVTGLFPSNYVKM [E15G]	-0.006 ± 0.034
VCQVIAMYDYAANNMDELSFSKGQLINVMNKDDPDWWQGEINGVTGLFPSNYVKM [E15M]	-0.083 ± 0.061
VCQVIAMYDYAANNPDELSFSKGQLINVMNKDDPDWWQGEINGVTGLFPSNYVKM [E15P]	0.011 ± 0.036
VCQVIAMYDYAANNRDELSFSKGQLINVMNKDDPDWWQGEINGVTGLFPSNYVKM [E15R]	-0.037 ± 0.03
VCQVIAMYDYAANNADELSFSKGQLINVMNKDDPDWWQGEINGVTGLFPSNYVKM [E15A]	-0.03 ± 0.036
VCQVIAMYDYAANNYDELSFSKGQLINVMNKDDPDWWQGEINGVTGLFPSNYVKM [E15Y]	-0.002 ± 0.06
VCQVIAMYDYAANNHDELSFSKGQLINVMNKDDPDWWQGEINGVTGLFPSNYVKM [E15H]	0 ± 0.068
VCQVIAMYDYAANNCDELSFSKGQLINVMNKDDPDWWQGEINGVTGLFPSNYVKM [E15C]	-0.048 ± 0.031
VCQVIAMYDYAANNKDELSFSKGQLINVMNKDDPDWWQGEINGVTGLFPSNYVKM [E15K]	-0.048 ± 0.059
VCQVIAMYDYAANNTDELSFSKGQLINVMNKDDPDWWQGEINGVTGLFPSNYVKM [E15T]	0.033 ± 0.049
VCQVIAMYDYAANNVDELSFSKGQLINVMNKDDPDWWQGEINGVTGLFPSNYVKM [E15V]	-0.014 ± 0.045
VCQVIAMYDYAANNNDELSFSKGQLINVMNKDDPDWWQGEINGVTGLFPSNYVKM [E15N]	-0.123 ± 0.069
VCQVIAMYDYAANNWDELSFSKGQLINVMNKDDPDWWQGEINGVTGLFPSNYVKM [E15W]	-0.141 ± 0.047
VCQVIAMYDYAANNSDELSFSKGQLINVMNKDDPDWWQGEINGVTGLFPSNYVKM [E15S]	-0.01 ± 0.039
VCQVIAMYDYAANNFDELSFSKGQLINVMNKDDPDWWQGEINGVTGLFPSNYVKM [E15F]	-0.12 ± 0.06
VCQVIAMYDYAANNEAELSFSKGQLINVMNKDDPDWWQGEINGVTGLFPSNYVKM [D16A]	0.004 ± 0.041
VCQVIAMYDYAANNECELSFSKGQLINVMNKDDPDWWQGEINGVTGLFPSNYVKM [D16C]	-0.014 ± 0.057
VCQVIAMYDYAANNEFELSFSKGQLINVMNKDDPDWWQGEINGVTGLFPSNYVKM [D16F]	-0.04 ± 0.033
VCQVIAMYDYAANNEEELSFSKGQLINVMNKDDPDWWQGEINGVTGLFPSNYVKM [D16E]	-0.011 ± 0.057
VCQVIAMYDYAAVNEDELSFSKGQLINVMNKDDPDWWQGEINGVTGLFPSNYVKM [N13V]	-0.003 ± 0.033
VCQVIAMYDYAAQNEDELSFSKGQLINVMNKDDPDWWQGEINGVTGLFPSNYVKM [N13Q]	0.051 ± 0.033
VCQVIAMYDYAASNEDELSFSKGQLINVMNKDDPDWWQGEINGVTGLFPSNYVKM [N13S]	0.014 ± 0.029
VCQVIAMYDYAAMNEDELSFSKGQLINVMNKDDPDWWQGEINGVTGLFPSNYVKM [N13M]	-0.014 ± 0.037

Variant	abundance fitness
VCQVIAMYDYAAPNEDELSFSKGQLINVMNKDDPDWWQGEINGVTGLFPSNYVKM [N13P]	-0.133 ± 0.055
VCQVIAMYDYAARNEDELSFSKGQLINVMNKDDPDWWQGEINGVTGLFPSNYVKM [N13R]	0.038 ± 0.047
VCQVIAMYDYAAKNEDELSFSKGQLINVMNKDDPDWWQGEINGVTGLFPSNYVKM [N13K]	0.042 ± 0.037
VCQVIAMYDYAAYNEDELSFSKGQLINVMNKDDPDWWQGEINGVTGLFPSNYVKM [N13Y]	-0.141 ± 0.069
VCQVIAMYDYAATNEDELSFSKGQLINVMNKDDPDWWQGEINGVTGLFPSNYVKM [N13T]	0.011 ± 0.037
VCQVIAMYDYAALNEDELSFSKGQLINVMNKDDPDWWQGEINGVTGLFPSNYVKM [N13L]	0.01 ± 0.036
VCQVIAMYDYAAWNEDELSFSKGQLINVMNKDDPDWWQGEINGVTGLFPSNYVKM [N13W]	-0.306 ± 0.069
VCQVIAMYDYAANIEDELSFSKGQLINVMNKDDPDWWQGEINGVTGLFPSNYVKM [N14I]	-0.092 ± 0.065
VCQVIAMYDYAANPEDELSFSKGQLINVMNKDDPDWWQGEINGVTGLFPSNYVKM [N14P]	-0.535 ± 0.062
VCQVIAMYDYAANFEDELSFSKGQLINVMNKDDPDWWQGEINGVTGLFPSNYVKM [N14F]	-0.08 ± 0.063
VCQVIAMYDYAANEEDELSFSKGQLINVMNKDDPDWWQGEINGVTGLFPSNYVKM [N14E]	-0.044 ± 0.036
VCQVIAMYDYAANCEDELSFSKGQLINVMNKDDPDWWQGEINGVTGLFPSNYVKM [N14C]	-0.027 ± 0.061
VCQVIAMYDYAANREDELSFSKGQLINVMNKDDPDWWQGEINGVTGLFPSNYVKM [N14R]	0.007 ± 0.029
VCQVIAMYDYAANTEDELSFSKGQLINVMNKDDPDWWQGEINGVTGLFPSNYVKM [N14T]	-0.001 ± 0.044
VCQVIAMYDYAANGEDELSFSKGQLINVMNKDDPDWWQGEINGVTGLFPSNYVKM [N14G]	-0.024 ± 0.045
VCQVIAMYDYAANMEDELSFSKGQLINVMNKDDPDWWQGEINGVTGLFPSNYVKM [N14M]	-0.016 ± 0.042
VCQVIAMYDYAANAEDELSFSKGQLINVMNKDDPDWWQGEINGVTGLFPSNYVKM [N14A]	-0.038 ± 0.05
VCQVIAMYDYAANHEDELSFSKGQLINVMNKDDPDWWQGEINGVTGLFPSNYVKM [N14H]	0.02 ± 0.066
VCQVIAMYDYAANVEDELSFSKGQLINVMNKDDPDWWQGEINGVTGLFPSNYVKM [N14V]	-0.099 ± 0.043
VCQVIAMYDYAANYEDELSFSKGQLINVMNKDDPDWWQGEINGVTGLFPSNYVKM [N14Y]	-0.048 ± 0.065
VCQVIAMYDYAANSEDELSFSKGQLINVMNKDDPDWWQGEINGVTGLFPSNYVKM [N14S]	0.014 ± 0.046
VCQVIAMYDYAANQEDELSFSKGQLINVMNKDDPDWWQGEINGVTGLFPSNYVKM [N14Q]	-0.01 ± 0.056
VCQVIAMYDYAANDEDELSFSKGQLINVMNKDDPDWWQGEINGVTGLFPSNYVKM [N14D]	-0.089 ± 0.047
VCQVIAMYDYAANWEDELSFSKGQLINVMNKDDPDWWQGEINGVTGLFPSNYVKM [N14W]	-0.203 ± 0.039
